According to patent US20260226179A1 (MAB DESIGNS, published 2026):
Values joined by “and” are separate entries in the source; they are usually repeats but may differ in a detail not shown here. Identical values can stand only once.

T1: human soluble IL-6R (human, UniProt P08887 20-357)
T1 sequence: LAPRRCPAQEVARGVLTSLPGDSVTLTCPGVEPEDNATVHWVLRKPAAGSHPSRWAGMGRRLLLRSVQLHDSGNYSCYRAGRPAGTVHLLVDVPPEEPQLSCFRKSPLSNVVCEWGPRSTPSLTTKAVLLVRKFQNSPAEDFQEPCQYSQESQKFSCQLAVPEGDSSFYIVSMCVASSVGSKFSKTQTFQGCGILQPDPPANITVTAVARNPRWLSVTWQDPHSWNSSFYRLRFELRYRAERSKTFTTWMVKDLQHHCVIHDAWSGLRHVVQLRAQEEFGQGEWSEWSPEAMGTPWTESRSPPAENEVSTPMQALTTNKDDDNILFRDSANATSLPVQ

T2: human membrane-bound IL-6R subunit alpha (human, UniProt P08887 20-468)
T2 sequence: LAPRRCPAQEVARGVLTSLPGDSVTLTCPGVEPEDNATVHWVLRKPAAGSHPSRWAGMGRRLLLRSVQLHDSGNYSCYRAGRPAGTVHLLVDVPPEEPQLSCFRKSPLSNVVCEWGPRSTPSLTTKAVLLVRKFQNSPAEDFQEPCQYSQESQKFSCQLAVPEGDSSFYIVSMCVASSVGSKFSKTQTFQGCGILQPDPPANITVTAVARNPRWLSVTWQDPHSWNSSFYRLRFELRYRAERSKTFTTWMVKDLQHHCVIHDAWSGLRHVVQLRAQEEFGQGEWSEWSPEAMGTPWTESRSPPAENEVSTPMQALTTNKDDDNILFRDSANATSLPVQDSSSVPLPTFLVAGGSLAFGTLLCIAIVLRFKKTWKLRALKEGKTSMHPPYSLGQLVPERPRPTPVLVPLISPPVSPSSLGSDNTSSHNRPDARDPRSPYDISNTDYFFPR

T3: human membrane-bound IL-6R subunit alpha (human, UniProt P08887 20-468)
T3 sequence: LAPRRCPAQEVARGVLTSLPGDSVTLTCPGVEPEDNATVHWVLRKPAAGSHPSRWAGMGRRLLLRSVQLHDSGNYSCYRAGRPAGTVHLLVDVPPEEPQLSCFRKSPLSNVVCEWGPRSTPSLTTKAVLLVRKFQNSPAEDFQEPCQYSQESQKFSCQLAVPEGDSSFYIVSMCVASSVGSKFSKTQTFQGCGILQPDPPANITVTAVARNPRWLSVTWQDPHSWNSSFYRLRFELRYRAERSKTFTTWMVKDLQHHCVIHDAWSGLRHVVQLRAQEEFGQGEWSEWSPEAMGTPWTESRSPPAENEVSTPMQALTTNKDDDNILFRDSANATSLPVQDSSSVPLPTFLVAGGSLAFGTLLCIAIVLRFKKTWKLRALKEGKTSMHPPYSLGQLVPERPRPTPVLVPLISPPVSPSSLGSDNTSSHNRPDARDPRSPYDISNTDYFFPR

T4: murine soluble IL-6R (mouse, UniProt P22272 20-347, limits assumed)
T4 sequence: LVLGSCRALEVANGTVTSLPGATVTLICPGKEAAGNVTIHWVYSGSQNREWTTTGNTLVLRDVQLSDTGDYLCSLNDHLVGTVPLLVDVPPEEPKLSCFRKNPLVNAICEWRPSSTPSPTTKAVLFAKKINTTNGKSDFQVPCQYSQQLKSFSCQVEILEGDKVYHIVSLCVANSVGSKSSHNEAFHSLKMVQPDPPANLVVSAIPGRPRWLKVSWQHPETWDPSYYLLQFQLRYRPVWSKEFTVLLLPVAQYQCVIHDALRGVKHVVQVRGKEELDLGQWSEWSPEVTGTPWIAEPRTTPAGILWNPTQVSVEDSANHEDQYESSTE

T5: mouse membrane-bound IL-6R subunit alpha (mouse, UniProt P22272 20-460)
T5 sequence: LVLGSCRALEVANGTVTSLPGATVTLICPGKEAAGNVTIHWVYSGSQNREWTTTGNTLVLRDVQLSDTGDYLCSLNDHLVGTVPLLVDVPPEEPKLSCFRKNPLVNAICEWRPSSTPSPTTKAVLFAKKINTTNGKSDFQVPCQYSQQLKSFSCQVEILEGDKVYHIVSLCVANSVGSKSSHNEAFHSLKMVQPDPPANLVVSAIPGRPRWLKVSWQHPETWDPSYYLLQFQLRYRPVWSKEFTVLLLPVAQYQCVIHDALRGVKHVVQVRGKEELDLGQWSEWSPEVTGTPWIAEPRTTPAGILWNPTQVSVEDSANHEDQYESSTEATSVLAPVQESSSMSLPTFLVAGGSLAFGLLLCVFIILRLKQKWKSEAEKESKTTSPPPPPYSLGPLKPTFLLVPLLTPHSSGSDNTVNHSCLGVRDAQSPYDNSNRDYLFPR

T6: human soluble IL-6R (human, UniProt P08887 20-357, limits assumed)
T6 sequence: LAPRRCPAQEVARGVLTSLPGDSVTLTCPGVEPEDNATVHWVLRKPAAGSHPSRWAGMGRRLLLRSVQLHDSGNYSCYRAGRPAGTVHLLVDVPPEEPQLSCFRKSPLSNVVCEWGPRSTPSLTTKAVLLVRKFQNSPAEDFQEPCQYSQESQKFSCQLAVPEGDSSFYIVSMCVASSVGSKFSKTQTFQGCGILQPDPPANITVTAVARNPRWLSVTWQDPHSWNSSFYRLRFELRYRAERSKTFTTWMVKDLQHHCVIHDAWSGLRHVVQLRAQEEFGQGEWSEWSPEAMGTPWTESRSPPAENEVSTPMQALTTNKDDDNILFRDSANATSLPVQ


Key:
Experiment in all cases: cell-based or functional assay
[1] = target: T1, human soluble IL-6R
[2] = target: T2, human membrane-bound IL-6R subunit alpha
[3] = target: T1, human soluble IL-6R; remark: listed apart in the source
[4] = target: T1, human soluble IL-6R; remark: listed apart in the source
[5] = target: T2, human membrane-bound IL-6R subunit alpha; remark: listed apart in the source
[6] = target: T3, human membrane-bound IL-6R subunit alpha; remark: listed apart in the source
[7] = target: T3, human membrane-bound IL-6R subunit alpha; remark: listed apart in the source
[8] = target: T4, murine soluble IL-6R
[9] = target: T3, human membrane-bound IL-6R subunit alpha; remark: listed apart in the source
[10] = target: T5, mouse membrane-bound IL-6R subunit alpha
[11] = target: T6, human soluble IL-6R
[12] = target: T3, human membrane-bound IL-6R subunit alpha; remark: listed apart in the source
[13] = target: T5, mouse membrane-bound IL-6R subunit alpha; remark: listed apart in the source
[14] = target: T3, human membrane-bound IL-6R subunit alpha; remark: listed apart in the source
[15] = target: Hyper-IL-6 (recombinant fusion protein consisting of IL-6 and soluble IL-6R)
[16] = target: T6, human soluble IL-6R; remark: listed apart in the source

Classical:trans signalling ratio intracellular signalling [1] | Residual STAT3 phosphorylation in HEK293 (IL-6 + sIL-6R; IL-6 trans signalling; 1% PE) [1] | Residual STAT3 phosphorylation in HEK293_IL-6R (IL-6 + sIL-6R; combined classical and trans signalling; 1% PE) [2] | Classical:trans signalling ratio proliferation [3] | Proliferation in % (Ba/F3_gp130 cells, IL-6 + sIL-6R = 100%; IL-6 trans signalling; 1% PE) [4] | Proliferation in % (Ba/F3_gp130_IL-6R cells, IL-6 + sIL-6R = 100%; combined IL-6 classical and trans signalling; 1% PE) [5] | IC50 for inhibition of IL-6 classical signalling-induced proliferation [6] | STAT3 phosphorylation in % in HEK293_IL-6R cells (10 ng/ml IL-6 + 200 ng/ml sIL-6R = 100%, mixed signalling), IgG at 1 µg/ml [7] | Proliferation in % of Ba/F3_gp130 cells (10 ng/ml murine IL-6 + 200 ng/ml murine soluble IL-6R = 100%), IgG at 10 µg/ml [8] | Proliferation in % of Ba/F3_gp130_IL-6R cells with 10 ng/ml IL-6 and 200 ng/ml sIL-6R (mixed signalling), IgG at 1 µg/ml [9] | Proliferation in % of Ba/F3_gp130_IL-6R cells with 10 ng/ml IL-6 and 200 ng/ml sIL-6R (mixed signalling), IgG at 10 µg/ml [9] | Proliferation in % of Ba/F3_gp130_muIL-6R cells (10 ng/ml murine IL-6 = 100%), IgG at 10 µg/ml [10] | STAT3 phosphorylation in % in HEK293 cells (10 ng/ml IL-6 + 200 ng/ml sIL-6R for 30 min = 100%), IgG at 1 µg/ml [11] | Proliferation in % of Ba/F3_gp130_IL-6R cells (10 ng/ml IL-6 = 100%), IgG at 1 µg/ml [12] | Proliferation in % of Ba/F3_gp130_IL-6R cells (10 ng/ml IL-6 = 100%), IgG at 10 µg/ml [12] | Proliferation in % of Ba/F3_gp130_muIL-6R cells (10 ng/ml murine IL-6 + 200 ng/ml murine soluble IL-6R = 100%, mixed signalling), IgG at 10 µg/ml [13] | STAT3 phosphorylation in % in HEK293_IL-6R cells (10 ng/ml IL-6 for 30 min = 100%), IgG at 1 µg/ml [14] | IC50 of inhibition of proliferation of Ba/F3_gp130 cells induced by 28 ng/ml Hy-IL-6 [15] | IC50 of inhibition of proliferation of Ba/F3_gp130 cells induced by 10 ng/ml IL-6 and 200 ng/ml sIL-6R [16] | Binder
2.2 ratio | 38% | 83% | 1.3 ratio | 69.8% | 91.6% |  |  |  |  |  |  |  |  |  |  |  |  |  | candidate anti-IL-6R Fab clone 09 (Fab, V domains shown) VH: EVQLVESGGDLVQPGGSLKLSCAASGFTFSNYGMSWVRQTPDKRLELVAAINSNGGSTYYPDSVKGRFTISRDNAKNTLYLQMSSLKSEDTAMYYCARDGNYVSDYWGQGTTLTVSS VL: DIVLTQSPASLAVSLGQRATISCRASESVDSYGNSFMHWYQQKPGQPPKLLIYLASNLESGVPARFSGSGSRTDFTLTIDPVEADDAATYYCQQNNEDPWTFGGGTKLEIK
 |  |  |  |  |  | > 53 nM | 88.1% | 86.2% | 94.7% | 88.6% | 108% | 0.2% | 92.6% | 87.6% | 114% | 86.9% | 304 ng/ml and 2 nM | 531 ng/ml and 3.5 nM | anti-IL-6R IgG antibody 20 (C20 antibody, Fab chimerized with human IgG1) (antibody, V domains shown) VH: EVKLMESGGGLVQPGGSLKLSCAASGFTFSNYGMSWVRQTPDKRLELVAIINSNGGSTYYPDSVKGRFTISRDNAKNTLYLQMSSLKSEDTAIYYCARDGNFVSDYWGQGTTLTVSS VL: DIVLTQSPASLAVSLGQRATISCRASESVDSYGNRFLNWYQQKPGQPPKLLIYLASNLESGVPARFSGSGSRTDFTLTIDPVEADDAATYYCQQNNEDPYTFGGGTKLEIK
 |  |  |  |  |  | > 53 nM | 99.9% | 106% | 94.3% | 87.6% | 102% | 4% | 94.3% | 92.2% | 114% | 97.8% | 748 ng/ml and 5 nM | 863 ng/ml and 5.8 nM | anti-IL-6R IgG antibody 12 (C12 antibody, Fab chimerized with human IgG1) (antibody, V domains shown) VH: EVKLMESGGGLVQPGGSLKLSCAASGFTFSNYGMSWVRQTPDKRLEWVANINSNGGSTYYPDSVKGRFTISRDNAQNTLYLQMSSLKSEDTAMYYCTRDGNFVSDYWGQGTTLTVSS VL: DIVLTQSPASLAVSPGQRATISCRASESVDSYGNSFMNWYQQKPGQPPKLLIYLASNLESGVPARFSGSGSRTDFTLTIDPVEADDAATYYCQQNNEDPYTFGGGTKLEIK
 |  |  |  |  |  | > 53 nM | 98.4% | 108% | 104% | 95.2% | 105% | 6.9% | 100% | 93.1% | 116% | 89.5% | 755 ng/ml and 5 nM | 1210 ng/ml and 8 nM | anti-IL-6R IgG antibody 19 (C19 antibody, Fab chimerized with human IgG1) (antibody, V domains shown) VH: EVKLMESGGGLVQPGGSLKLSCAASGFTFSNYGMSWVRQTPDKRLELVAIMNSKGGSTYYPDSVMGRFTISRDNAKNTLYLQMSSLKSEDTAMYYCARDGYYTMDYWGQGTSVTVSS VL: DIVLTQSPASLAVSLGQRATISCRASKSVDSFGNSFMHWYQQKPGQSPRLLIFLASNLESGVPARFSGSGSRTDFTLTIDPVEADDAATYYCQQNNEDPYTFGGGTKLEIK
 |  |  |  |  |  | > 53 nM | 102% | 104% | 101% | 97.6% | 104% | 20% | 100% | 94% | 106% | 69.7% | 4130 ng/ml and 28 nM | 5260 ng/ml and 35 nM | anti-IL-6R IgG antibody 09 (C09 antibody, Fab chimerized with human IgG1) (antibody, V domains shown) VH: EVQLVESGGDLVQPGGSLKLSCAASGFTFSNYGMSWVRQTPDKRLELVAAINSNGGSTYYPDSVKGRFTISRDNAKNTLYLQMSSLKSEDTAMYYCARDGNYVSDYWGQGTTLTVSS VL: DIVLTQSPASLAVSLGQRATISCRASESVDSYGNSFMHWYQQKPGQPPKLLIYLASNLESGVPARFSGSGSRTDFTLTIDPVEADDAATYYCQQNNEDPWTFGGGTKLEIK
